Measured values reported in the nanobody polyreactivity screen of Harvey et al. (2022).

Experiment: yeast display, Sf9 membrane polyspecificity reagent, FACS + sequencing; frameworks hold sequencing errors
Outline: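 A nanobody's polyreactivity label depends on the gate it was sorted from. Yeast display cells were stained with 10% biotinylated, detergent-solubilized Sf9 membrane reagent for 1 hour at 4 °C, enriched on streptavidin microbeads and sorted by FACS. The low and high (top ~1%) gates were set on anti-HA fluorescence for expression and streptavidin fluorescence for reagent binding.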

Sequence | polyreactivity (PSR sort gate)
QVQLVESGGGLVQAGGSLRLSCAASGITFYTYAMGWYRQAPGKERELVAAISTGGSTYYADSVKGRFTISRDNAKNTVYLQMNSLKPEDTAVYYCAARTFSYPRRAYYYWGQGTQVTVSS | high polyreactivity
QVQLVESGGGLVQAGGSLRLSCAASGITFYTYAMGWYRQAPGKERELVAAITWRGGRTSYADSVKGRFTISRDNAKNTVYLQMNSLKPEDTAVYYCAKEAHPPWTSQDVFRSYDYWGQGTQVTVSS | low polyreactivity
QVQLVESGGGLVQAGGSLRLSCAASGITFYVNAMGWYRQAPGKERELVAAISRSGGSTYYADSVKGRFTISRDNAKNTVYLQMNSLKPEDTAVYYCNKEDYGLYPYYVSVGYDYWGQGTQVTVSS | low polyreactivity
QVQLVESGGGLVQAGGSLRLSCAASGITFYVNTKGWYRQAPGKEREVVAAIDWTDGGTYYADSVKGRFTISRDNAKNTVYLQMNSLKPEDTAVYYCALDYYWDIIGLYGYLAYDLDYWGQGTQVTVSS | low polyreactivity
QVQLVESGGGLVQAGGSLRLSCAASGITFYVYAMGSYTQAPGKEREFVAAISTRDGTTYADSEKGRFTISRDNAKNPFYLEMNSLKPVDTAVDYCAAAYYYDGQQGDFDYWGQGTQVTVSS | low polyreactivity
QVQLVESGGGLVQAGGSLRLSCAASGITFYVYAMGWYRQAPGKERELVAAISRRGGSTSYADSVKGRFTISRDNAKNTVYLQMNSLKPEDTAVYYCAKDTTYYQVYGYGYDYWGQGTQVTVSS | low polyreactivity
QVQLVESGGGLVQAGGSLRLSCAASGITFYVYAMGWYRQPPGTERDLVAAISRRGGSTSYADSVKGRFTISRDTAKNTVYLEMNSLKPEDTAVDYCAAGPFYGGIVRRYDYWGQGTQVTVSS | low polyreactivity
QVQLVESGGGLVQAGGSLRLSCAASGITFYVYTMGWYRQAPGKERELVAAINGSGGSTNYADSVKGRFTISRDNAKNTVFLQMNSLKPEDTAVYYCAADWSLRLYDYWGQGTQVTVSS | low polyreactivity
QVQLVESGGGLVQAGGSLRLSCAASGITFYYNVMGWYRQAPGKERELVASITSGGSTYYADSVKGRFTISRDNAKNTVYLQMNSLKPEDTAVSYCNKDHALYVDFSYDYWGQGTQVTVSS | low polyreactivity
QVQLVESGGGLVQAGGSLRLSCAASGITFYYYAMGWYRQAPGKERELVAAISRSGGSTYYADSVKGRFTISRDNAKNTVYLQMNSLKPEDTAVYYCANRKGGTLYNYWGQGTQVTVSS | high polyreactivity
QVQLVESGGGLVQAGGSLRLSCAASGITFYYYAMGWYRQAPGKERELVARISYGGGRTYYADSVKGRFTISRDNAKNTVYLQMNSLKPEDTAVYYCAARQGYRSYRRYDYWGQGTQVTVSS | high polyreactivity
QVQLVESGGGLVQAGGSLRLSCAASGITFYYYAMGWYRQAPGKERELVASIDNSGGSTYYADSVKGRFTISRDNEKNTVYLQMHSLKPEDTAVYFCAAVSRYYFLGVAFLDDYWGQGTLVTVSS | high polyreactivity
QVQLVESGGGLVQAGGSLRLSCAASGITFYYYTMGWYRQAPGKERELVAGITRGGRTYYADSVKGRFTISRDNAKNTVYLQMNSLKPEDTAVYYCAADYSYIYGFDYWGQGTQVTVSS | low polyreactivity
QVQLVESGGGLVQAGGSLRLSCAASGITIAGYAMGWYRQAPGKERELVAAITIGGRTYYADSVKGRFTISRDNAKNTVYLQMNSLKPVDTAVYYCAAARGFWWYDYWGQGTQVTVSS | high polyreactivity
QVQLVESGGGLVQAGGSLRLSCAASGITIFTYAMGWYRQAPGKERELVAAISGSGGSTYYADSVKGRFTISRDNAKNTVYLQMNSLKPEDTAVYSCAAEYTYGSPYDYWGQGTQVTVSS | low polyreactivity
QVQLVESGGGLVQAGGSLRLSCAASGITIQGYAMGWYRQAPGKERELVAAINDSGSSTYYADSVKGRFTISRDNAKNTFYLQMNSLKPEYTAVYYCAAYLWLWGQGTQVTVSS | low polyreactivity
QVQLVESGGGLVQAGGSLRLSCAASGITIRRYGMGWYRQAPGKERELVATITRDGRTYYADSVKGRFTISRDNAKNTVYLQMNSLKPEDTAVYYCARPARYSYGDGYWGQGTQVTVSS | low polyreactivity
QVQLVESGGGLVQAGGSLRLSCAASGITIRYYAMGWYRQAPGKERELVAAITRRGGSTSYADSVKGRFTISRDNAKNTVYLQMNSLKPEDTAVYYCNARKYTNQATYDYWGQGTQVTVSS | high polyreactivity
QVQLVESGGGLVQAGGSLRLSCAASGITITRYDMGWYRQAPGKERELVAAINWSGGRTYYADSVKGRFTISRDNAKYTVYLQMNSLKPEDTAVYYCNRALKYRRRDYWGQGTQVTVSS | high polyreactivity
QVQLVESGGGLVQAGGSLRLSCAASGITITTYAMGWYRQAPGKERELVAAISSASSTYYADSVKGRFTISRDNAKNTVYLQMNSLKPEDTAVYYCAARVFKKYRPSGRYYYWGQGTQVTVSS | high polyreactivity
QVQLVESGGGLVQAGGSLRLSCAASGITIVNYVMGWYRKAPGKERELVAAISIGGGTYYADSVKGRFTISRDNAKNTVYLQINSLKPEDTAVYYCNASYGGLSFYIGVYVTGYDYWGQGTQVTVSS | low polyreactivity
QVQLVESGGGLVQAGGSLRLSCAASGITIVRYAMGWYRQAPGKERELVAAINRSGGSTYYADSVKGRFTISRDNAKNTVYLQMNSLKPEDTAVYYCAARLYGKYDPPGYYYWGQGTQVTVSS | high polyreactivity

Sequence | polyreactivity (PSR sort gate)
QVQLVESGGGLVQAGGSLRLSCAASGITIYKYAMGWSRQAPGKERELVAVISRSGGSTYYADSVKGRFTISRDNAKNTVYLQMNSLKPEDTAVYYCAADYRYPRQSKYYYWGQGTQVTVSS | high polyreactivity
QVQLVESGGGLVQAGGSLRLSCAASGITIYNYAMGWYRQAPGKERELVAAITRSGGSTYYADSVKGRFTISRDNAKNTVYLQMNSLKPEDTAVYYCATGKYWRYDYWGQGTQVTVSS | high polyreactivity
QVQLVESGGGLVQAGGSLRLSCAASGITIYYNAMGWYRQAPGKARELVAAITQSGGSTFYADSVKGRFTISRDNAKNTVYLQMNSLKPEDTAVYYWGQGTQVTVSS | low polyreactivity
QVQLVESGGGLVQAGGSLRLSCAASGITLDRYDMGWYRQAPGKERELVAAISRSGVRTYYADSVKGRFTISRDNAKNTVYLQMNSLKPEDTAVYYCNKGYARRYASGYDYWGQGTQVTVSS | high polyreactivity
QVQLVESGGGLVQAGGSLRLSCAASGITLDYYAMGWYRQAPGKERELVASITSGGSTNYADSVKGRFTISRDNAKNTVYLQMNSLKPVDTAVYYCARDVNYPGSEGDYWGQGTQVTVSS | low polyreactivity
QVQLVESGGGLVQAGGSLRLSCAASGITLEDYDMGWYRQAPGKERELVAAITSGGSTNYADSVKGRFTISRDNAKNTVYLQMNSMKPEDTAVYYCNADFAIRWWYYFGSGYDYWGQGTQVTVSS | low polyreactivity
QVQLVESGGGLVQAGGSLRLSCAASGITLFGYAMGWYRQAPGKERELVAGISRRGGSTYYADSVKGRFTISRDNAKNTVYLQMNSLKPEDTAVYYCAAVYVQPPATAQHYYYWGQGTQVTVSS | high polyreactivity
QVQLVESGGGLVQAGGSLRLSCAASGITLFYYAMGWYRQAPGKERELVAAISWSGGSTYYADSVKGRFTISRDNAKNTDDLQMNSLKPEDTAVYYCNRVSRAPFDYWGQATQVTVSS | high polyreactivity
QVQLVESGGGLVQAGGSLRLSCAASGITLHEYVMGWYRQAPGKERELVAAISRRGDSTYYADSVKGRFTISRDNAKNTVYLQMNSLKPEDTAVYYCAARWYWYWSSWDYYSWGQGTQVTVSS | low polyreactivity
QVQLVESGGGLVQAGGSLRLSCAASGITLKRYAMGWYRQAPGKERELVAAITGRGGGTNYADSVKGRFTISRDNAKNTVYLQMNSLKPEDTAVYYCTAATYGDYSNLGYGYWGQGTQVTVSS | high polyreactivity
QVQLVESGGGLVQAGGSLRLSCAASGITLNRNAMGWYRQAPGKERELVAAISSGGNTYYADSVKGRFSISRDNAKNTVYLQMNSLKPEDTEVYYCAARQVQAPRSIGFYFWGQGTQVTVSS | high polyreactivity
QVQLVESGGGLVQAGGSLRLSCAASGITLRRNAMGWYRQAPGKERELVARISTTGGSTYYADSVKGRFTISRDNAKNTVYLQMNSLKPEDTAVYYCAARAPLGFWHYDYWGQGTQVTVSS | high polyreactivity
QVQLVESGGGLVQAGGSLRLSCAASGITLSNYAMGWYRQAPVKEREFVAALTRSGDSTYYADSVKGRFTISRDNAQNTVYLQMNSLKPEDTAVYYCPAEEHRYTEVYPTSTTDEYDYRGQGTQVTVSS | low polyreactivity
QVQLVESGGGLVQAGGSLRLSCAASGITLSYNDRGWYRQAHGKEREFVAAITGGGSTYYADSVKGRFTISRDNAKNTVYLQMNSLKPEDTEVYYCAAERWYAWTVLYTVSYGYWGQGTQVTVSS | high polyreactivity
QVQLVESGGGLVQAGGSLRLSCAASGITLTRYAMGWYRQAPGKERELVAAISTGGGSTYYADSVKGRFTISRDNAKNTVYLQMNSLKPEDTAVYYCAARIRFARGYPITRTYDYWGQGTQVTVSS | high polyreactivity
QVQLVESGGGLVQAGGSLRLSCAASGITLVTYAMGWYRQAPGKERELVAAISRSGGRTYYADSVKGRFTISRDNAKNTVDLQMNSLKPEDTAVYYCATRYHVGKDLYGYWGQGTQVTVSS | high polyreactivity
QVQLVESGGGLVQAGGSLRLSCAASGITLYGNAMGWYRQAPGKERELVAAITGRGGSTYYADSVKGRFTISRDNAKNTVYLQMNSLKPEDTAVYYCNKAQSRSQLYGYWGQGTQVTVSS | high polyreactivity
QVQLVESGGGLVQAGGSLRLSCAASGITLYRYAMGWYRPAPGKERELVADISSGGGTTYYADSVKGRFTISRDNAKNTVSLQMNSLKPEDTALYYCAADYGFRYPLYDYWGQGTQVTVSS | low polyreactivity
QVQLVESGGGLVQAGGSLRLSCAASGITLYRYVMGWYRQAPGKERELVADISGRGTSTYYADSVKGRFTISRDNAKNTVYLQMNSLKPEDTAVYYCNAEYTKTGAQREQSFLTRRGPGYDYWGQVTQVTVSS | low polyreactivity
QVQLVESGGGLVQAGGSLRLSCAASGITLYYYAMGWYRQAPGKERELVAAISTSGGTTYYADSVKGRFTISRDNAKYTVYLQMNSLKPEDTAVYYCAARRRAFGSTYNYWGQGTQVTVSS | high polyreactivity
QVQLVESGGGLVQAGGSLRLSCAASGITQYGYAMGWYRQAPGKEREFVAAISRSGDRTYYADSVKGRYTISRDNAKNTVYLQLNSLKPEDTAVYYCNAWRYDYWGQGTQVTVSS | high polyreactivity
